In patent EP1903056A2:

Assays:
HLA-B*4403 (human) = assay: competition binding assay, purified HLA class I
HLA-B*4001 (human) = assay: competition binding assay, purified HLA class I

- IC50 (HLA-B*4403 (human)): 2.01 µM
- IC50 (HLA-B*4001 (human)): 10.4 µM
Substance: WEELSML (MAGE2 position 234, 7-mer) (peptide)
